B1: hCE115HAuPA27/GLS//GCH065 (bispecific antibody, human IgG1, kappa, N297A)
heavy 1: QDGNEEMGGITQTPYKVSISGTTVILTLSGRSDNHQVQLVESGGGVVQPGRSLRLSCAASGFTFSNAWMHWVRQAPGKGLEWVAQIKAKSNNYATYYAESVKGRFTISRDDSKNSLYLQMNSLKTEDTAVYYCRYVHYGAYYGVDAWGQGTTVTVSSASTKGPSVFPLAPSSKSTSGGTAALGCLVKDYFPEPVTVSWNSGALTSGVHTFPAVLQSSGLYSLSSVVTVPSSSLGTQTYICNVNHKPSNTKVDKKVEPKSCDKTHTCPPCPAPELRGGPKVFLFPPKPKDTLMISRTPEVTCVVVDVSHEDPEVKFNWYVDGVEVHNAKTKPREEQYASTYRVVSVLTVLHQDWLNGKEYKCKVSNKALPAPIEKTISKAKGQPREPQVYTLPPSRKEMTKNQVSLTCLVKGFYPSDIAVEWESNGQPENNYKTTPPYLDSDGSFFLYSKLTVDKSRWQQGNVFSCSVMHEALHNHYTQKSLSLSP
light 1: DIVMTQSPLSLPVTPGEPASISCRSSQSLVHSNRNTYLHWYQQKPGQAPRLLIYKVSNRFSGVPDRFSGSGSGTDFTLKISRVEAEDVGVYYCGQGTQVPYTFGQGTKLEIKRTVAAPSVFIFPPSDEQLKSGTASVVCLLNNFYPREAKVQWKVDNALQSGNSQESVTEQDSKDSTYSLSSTLTLSKADYEKHKVYACEVTHQGLSSPVTKSFNRGEC
heavy 2: QVQLVQSGAEVKKPGASVTVSCKASGYTFTDYEMHWIRQPPGEGLEWIGAIDGPTPDTAYSEKFKGRVTLTADKSTSTAYMELSSLTSEDTAVYYCTRFYSYTYWGQGTLVTVSSASTKGPSVFPLAPSSKSTSGGTAALGCLVKDYFPEPVTVSWNSGALTSGVHTFPAVLQSSGLYSLSSVVTVPSSSLGTQTYICNVNHKPSNTKVDKKVEPKSCDKTHTCPPCPAPELRGGPKVFLFPPKPKDTLMISRTPEVTCVVVDVSHEDPEVKFNWYVDGVEVHNAKTKPREEQYASTYRVVSVLTVLHQDWLNGKEYKCKVSNKALPAPIEKTISKAKGQPREPQVYTLPPSREEMTKNQVSLTCLVKGFYPSDIAVEWESNGQPENNYKTTPPYLDSDGSFFLYSKLTVDKSRWQQGNVFSCSVMHEALHNHYTQESLSLSP
light 2: DIVMTQSPLSLPVTPGEPASISCRSSQPLVHSNRNTYLHWYQQKPGQAPRLLIYKVSNRFSGVPDRFSGSGSGTDFTLKISRVEAEDVGVYYCGQGTQVPYTFGQGTKLEIKRTVAAPSVFIFPPSDEQLKSGTASVVCLLNNFYPREAKVQWKVDNALQSGNSQESVTEQDSKDSTYSLSSTLTLSKADYEKHKVYACEVTHQGLSSPVTKSFNRGEC
B2: AN/GLS//GCH065 (bispecific antibody, human IgG1, kappa, N297A)
heavy 1: QVQLVESGGGLVQPGRSLRLSCAASGFTFSNAWMHWVRQAPGKGLEWVAQIKDKANGYNAYYAESVKGRFTISRDDSKNSIYLQMNSLKTEDTAVYYCRYVHYTTYAGFSYKFGVDAWGQGTTVTVSSASTKGPSVFPLAPSSKSTSGGTAALGCLVKDYFPEPVTVSWNSGALTSGVHTFPAVLQSSGLYSLSSVVTVPSSSLGTQTYICNVNHKPSNTKVDKKVEPKSCDKTHTCPPCPAPELRGGPKVFLFPPKPKDTLMISRTPEVTCVVVDVSHEDPEVKFNWYVDGVEVHNAKTKPREEQYASTYRVVSVLTVLHQDWLNGKEYKCKVSNKALPAPIEKTISKAKGQPREPQVYTLPPSRKEMTKNQVSLTCLVKGFYPSDIAVEWESNGQPENNYKTTPPYLDSDGSFFLYSKLTVDKSRWQQGNVFSCSVMHEALHNHYTQKSLSLSP
light 1: DIVMTQSPLSLPVTPGEPASISCRSSQSLVHSNRNTYLHWYQQKPGQAPRLLIYKVSNRFSGVPDRFSGSGSGTDFTLKISRVEAEDVGVYYCGQGTQVPYTFGQGTKLEIKRTVAAPSVFIFPPSDEQLKSGTASVVCLLNNFYPREAKVQWKVDNALQSGNSQESVTEQDSKDSTYSLSSTLTLSKADYEKHKVYACEVTHQGLSSPVTKSFNRGEC
heavy 2: QVQLVQSGAEVKKPGASVTVSCKASGYTFTDYEMHWIRQPPGEGLEWIGAIDGPTPDTAYSEKFKGRVTLTADKSTSTAYMELSSLTSEDTAVYYCTRFYSYTYWGQGTLVTVSSASTKGPSVFPLAPSSKSTSGGTAALGCLVKDYFPEPVTVSWNSGALTSGVHTFPAVLQSSGLYSLSSVVTVPSSSLGTQTYICNVNHKPSNTKVDKKVEPKSCDKTHTCPPCPAPELRGGPKVFLFPPKPKDTLMISRTPEVTCVVVDVSHEDPEVKFNWYVDGVEVHNAKTKPREEQYASTYRVVSVLTVLHQDWLNGKEYKCKVSNKALPAPIEKTISKAKGQPREPQVYTLPPSREEMTKNQVSLTCLVKGFYPSDIAVEWESNGQPENNYKTTPPYLDSDGSFFLYSKLTVDKSRWQQGNVFSCSVMHEALHNHYTQESLSLSP
light 2: DIVMTQSPLSLPVTPGEPASISCRSSQPLVHSNRNTYLHWYQQKPGQAPRLLIYKVSNRFSGVPDRFSGSGSGTDFTLKISRVEAEDVGVYYCGQGTQVPYTFGQGTKLEIKRTVAAPSVFIFPPSDEQLKSGTASVVCLLNNFYPREAKVQWKVDNALQSGNSQESVTEQDSKDSTYSLSSTLTLSKADYEKHKVYACEVTHQGLSSPVTKSFNRGEC
B3: ANuPA04/GLS//GCH065 (bispecific antibody, human IgG1, kappa, N297A)
heavy 1: QDGNEEMGGGSGGGSGGGSLSGRSDNHGGGSQVQLVESGGGLVQPGRSLRLSCAASGFTFSNAWMHWVRQAPGKGLEWVAQIKDKANGYNAYYAESVKGRFTISRDDSKNSIYLQMNSLKTEDTAVYYCRYVHYTTYAGFSYKFGVDAWGQGTTVTVSSASTKGPSVFPLAPSSKSTSGGTAALGCLVKDYFPEPVTVSWNSGALTSGVHTFPAVLQSSGLYSLSSVVTVPSSSLGTQTYICNVNHKPSNTKVDKKVEPKSCDKTHTCPPCPAPELRGGPKVFLFPPKPKDTLMISRTPEVTCVVVDVSHEDPEVKFNWYVDGVEVHNAKTKPREEQYASTYRVVSVLTVLHQDWLNGKEYKCKVSNKALPAPIEKTISKAKGQPREPQVYTLPPSRKEMTKNQVSLTCLVKGFYPSDIAVEWESNGQPENNYKTTPPYLDSDGSFFLYSKLTVDKSRWQQGNVFSCSVMHEALHNHYTQKSLSLSP
light 1: DIVMTQSPLSLPVTPGEPASISCRSSQSLVHSNRNTYLHWYQQKPGQAPRLLIYKVSNRFSGVPDRFSGSGSGTDFTLKISRVEAEDVGVYYCGQGTQVPYTFGQGTKLEIKRTVAAPSVFIFPPSDEQLKSGTASVVCLLNNFYPREAKVQWKVDNALQSGNSQESVTEQDSKDSTYSLSSTLTLSKADYEKHKVYACEVTHQGLSSPVTKSFNRGEC
heavy 2: QVQLVQSGAEVKKPGASVTVSCKASGYTFTDYEMHWIRQPPGEGLEWIGAIDGPTPDTAYSEKFKGRVTLTADKSTSTAYMELSSLTSEDTAVYYCTRFYSYTYWGQGTLVTVSSASTKGPSVFPLAPSSKSTSGGTAALGCLVKDYFPEPVTVSWNSGALTSGVHTFPAVLQSSGLYSLSSVVTVPSSSLGTQTYICNVNHKPSNTKVDKKVEPKSCDKTHTCPPCPAPELRGGPKVFLFPPKPKDTLMISRTPEVTCVVVDVSHEDPEVKFNWYVDGVEVHNAKTKPREEQYASTYRVVSVLTVLHQDWLNGKEYKCKVSNKALPAPIEKTISKAKGQPREPQVYTLPPSREEMTKNQVSLTCLVKGFYPSDIAVEWESNGQPENNYKTTPPYLDSDGSFFLYSKLTVDKSRWQQGNVFSCSVMHEALHNHYTQESLSLSP
light 2: DIVMTQSPLSLPVTPGEPASISCRSSQPLVHSNRNTYLHWYQQKPGQAPRLLIYKVSNRFSGVPDRFSGSGSGTDFTLKISRVEAEDVGVYYCGQGTQVPYTFGQGTKLEIKRTVAAPSVFIFPPSDEQLKSGTASVVCLLNNFYPREAKVQWKVDNALQSGNSQESVTEQDSKDSTYSLSSTLTLSKADYEKHKVYACEVTHQGLSSPVTKSFNRGEC
B4: ANGS/GLS//GCH065 (bispecific antibody, human IgG1, kappa, N297A)
heavy 1: QDGNEGGGSGGGSQVQLVESGGGLVQPGRSLRLSCAASGFTFSNAWMHWVRQAPGKGLEWVAQIKDKANGYNAYYAESVKGRFTISRDDSKNSIYLQMNSLKTEDTAVYYCRYVHYTTYAGFSYKFGVDAWGQGTTVTVSSASTKGPSVFPLAPSSKSTSGGTAALGCLVKDYFPEPVTVSWNSGALTSGVHTFPAVLQSSGLYSLSSVVTVPSSSLGTQTYICNVNHKPSNTKVDKKVEPKSCDKTHTCPPCPAPELRGGPKVFLFPPKPKDTLMISRTPEVTCVVVDVSHEDPEVKFNWYVDGVEVHNAKTKPREEQYASTYRVVSVLTVLHQDWLNGKEYKCKVSNKALPAPIEKTISKAKGQPREPQVYTLPPSRKEMTKNQVSLTCLVKGFYPSDIAVEWESNGQPENNYKTTPPYLDSDGSFFLYSKLTVDKSRWQQGNVFSCSVMHEALHNHYTQKSLSLSP
light 1: DIVMTQSPLSLPVTPGEPASISCRSSQSLVHSNRNTYLHWYQQKPGQAPRLLIYKVSNRFSGVPDRFSGSGSGTDFTLKISRVEAEDVGVYYCGQGTQVPYTFGQGTKLEIKRTVAAPSVFIFPPSDEQLKSGTASVVCLLNNFYPREAKVQWKVDNALQSGNSQESVTEQDSKDSTYSLSSTLTLSKADYEKHKVYACEVTHQGLSSPVTKSFNRGEC
heavy 2: QVQLVQSGAEVKKPGASVTVSCKASGYTFTDYEMHWIRQPPGEGLEWIGAIDGPTPDTAYSEKFKGRVTLTADKSTSTAYMELSSLTSEDTAVYYCTRFYSYTYWGQGTLVTVSSASTKGPSVFPLAPSSKSTSGGTAALGCLVKDYFPEPVTVSWNSGALTSGVHTFPAVLQSSGLYSLSSVVTVPSSSLGTQTYICNVNHKPSNTKVDKKVEPKSCDKTHTCPPCPAPELRGGPKVFLFPPKPKDTLMISRTPEVTCVVVDVSHEDPEVKFNWYVDGVEVHNAKTKPREEQYASTYRVVSVLTVLHQDWLNGKEYKCKVSNKALPAPIEKTISKAKGQPREPQVYTLPPSREEMTKNQVSLTCLVKGFYPSDIAVEWESNGQPENNYKTTPPYLDSDGSFFLYSKLTVDKSRWQQGNVFSCSVMHEALHNHYTQESLSLSP
light 2: DIVMTQSPLSLPVTPGEPASISCRSSQPLVHSNRNTYLHWYQQKPGQAPRLLIYKVSNRFSGVPDRFSGSGSGTDFTLKISRVEAEDVGVYYCGQGTQVPYTFGQGTKLEIKRTVAAPSVFIFPPSDEQLKSGTASVVCLLNNFYPREAKVQWKVDNALQSGNSQESVTEQDSKDSTYSLSSTLTLSKADYEKHKVYACEVTHQGLSSPVTKSFNRGEC

CD3 on NFAT-RE-luc2-Jurkat cells, sequence (P07766 23-207): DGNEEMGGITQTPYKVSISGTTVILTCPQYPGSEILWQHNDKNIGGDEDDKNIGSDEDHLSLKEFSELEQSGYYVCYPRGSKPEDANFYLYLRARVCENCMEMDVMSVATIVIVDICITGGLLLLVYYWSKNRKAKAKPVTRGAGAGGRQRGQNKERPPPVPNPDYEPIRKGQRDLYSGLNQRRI

This experiment addresses CD3 on NFAT-RE-luc2-Jurkat cells (human, UniProt P07766 23-207). Description: cell-based or functional assay.
As for B1, the “increase rate due to the protease treatment (luciferase, uPA-treated / untreated), antibody 0.1 nM” value was 0.9 ratio and the “increase rate due to the protease treatment (luciferase, uPA-treated / untreated), antibody 1 nM” value came to 1.4 ratio.

For the molecule B2, the “increase rate due to the protease treatment (luciferase, uPA-treated / untreated), antibody 0.1 nM” value was found to be 0.6 ratio and the “increase rate due to the protease treatment (luciferase, uPA-treated / untreated), antibody 1 nM” value worked out at 0.7 ratio.

Turning to B3, the “increase rate due to the protease treatment (luciferase, uPA-treated / untreated), antibody 0.1 nM” value worked out at 1.9 ratio and the “increase rate due to the protease treatment (luciferase, uPA-treated / untreated), antibody 1 nM” value came to 3 ratio.

For the molecule B4, the “increase rate due to the protease treatment (luciferase, uPA-treated / untreated), antibody 0.1 nM” value came to 1 ratio and the “increase rate due to the protease treatment (luciferase, uPA-treated / untreated), antibody 1 nM” value amounted to 1 ratio.

The record behind these values is patent US20220401557A1 (Chugai, published 2022).
